Our source for the binding signal (% reduction of binding) values is publication PMC5429858.

The test system of the data set is EZH2 (recombinant PRC2 complex). As to the kind of experiment: pull-down (streptavidin) + western. Particulars: Folding buffer 100 mM KCl, 50 mM Tris-HCl, 5 mM MgCl2, 0.1 mM CaCl2, 0.5 mM ZnCl2 with BSA and RNase inhibitor (pH not given); PNA 30 min 37 C (legend: 1 h …).

Consider HOTAIR full-length lncRNA, for which the binding signal (% reduction of binding) was found to be 80.
